US20240167007A1 (RHEINISCHE FRIEDRICH WILHELMS UNIVERSIT T BONN, published 2024)

Assays:
[1] = target: mannose 6-phosphate (M6P) receptor (MPR300) on human hepatoma cells (HuH7) (human), P11717; experiment: cell-based or functional assay
[2] = target: the molecule itself; experiment: size exclusion chromatography (Superdex 200), pH 7.0; self-association
Procedure: The indicated hASA-variants were separated by size exclusion chromatography using a Superdex 200 column (Amersham Pharmacia) linked to an Äkta FPLC system (GE Healthcare). The buffer was 150 mM NaCl, 20 mM Bis-Tris, pH 7.0. Fractions (0.5 ml) were collected and analysed on ASA activity using p-nitrocatechol sulfate as a substrate. Elution profiles of the four indicated hASA-variants are superimposed. While wildtype hASA presents as a dimer at neutral pH, E424A-mutants form octamers.

Sequence of mannose 6-phosphate (M6P) receptor (MPR300) on human hepatoma cells (HuH7) (human), P11717 (P11717 41-2491): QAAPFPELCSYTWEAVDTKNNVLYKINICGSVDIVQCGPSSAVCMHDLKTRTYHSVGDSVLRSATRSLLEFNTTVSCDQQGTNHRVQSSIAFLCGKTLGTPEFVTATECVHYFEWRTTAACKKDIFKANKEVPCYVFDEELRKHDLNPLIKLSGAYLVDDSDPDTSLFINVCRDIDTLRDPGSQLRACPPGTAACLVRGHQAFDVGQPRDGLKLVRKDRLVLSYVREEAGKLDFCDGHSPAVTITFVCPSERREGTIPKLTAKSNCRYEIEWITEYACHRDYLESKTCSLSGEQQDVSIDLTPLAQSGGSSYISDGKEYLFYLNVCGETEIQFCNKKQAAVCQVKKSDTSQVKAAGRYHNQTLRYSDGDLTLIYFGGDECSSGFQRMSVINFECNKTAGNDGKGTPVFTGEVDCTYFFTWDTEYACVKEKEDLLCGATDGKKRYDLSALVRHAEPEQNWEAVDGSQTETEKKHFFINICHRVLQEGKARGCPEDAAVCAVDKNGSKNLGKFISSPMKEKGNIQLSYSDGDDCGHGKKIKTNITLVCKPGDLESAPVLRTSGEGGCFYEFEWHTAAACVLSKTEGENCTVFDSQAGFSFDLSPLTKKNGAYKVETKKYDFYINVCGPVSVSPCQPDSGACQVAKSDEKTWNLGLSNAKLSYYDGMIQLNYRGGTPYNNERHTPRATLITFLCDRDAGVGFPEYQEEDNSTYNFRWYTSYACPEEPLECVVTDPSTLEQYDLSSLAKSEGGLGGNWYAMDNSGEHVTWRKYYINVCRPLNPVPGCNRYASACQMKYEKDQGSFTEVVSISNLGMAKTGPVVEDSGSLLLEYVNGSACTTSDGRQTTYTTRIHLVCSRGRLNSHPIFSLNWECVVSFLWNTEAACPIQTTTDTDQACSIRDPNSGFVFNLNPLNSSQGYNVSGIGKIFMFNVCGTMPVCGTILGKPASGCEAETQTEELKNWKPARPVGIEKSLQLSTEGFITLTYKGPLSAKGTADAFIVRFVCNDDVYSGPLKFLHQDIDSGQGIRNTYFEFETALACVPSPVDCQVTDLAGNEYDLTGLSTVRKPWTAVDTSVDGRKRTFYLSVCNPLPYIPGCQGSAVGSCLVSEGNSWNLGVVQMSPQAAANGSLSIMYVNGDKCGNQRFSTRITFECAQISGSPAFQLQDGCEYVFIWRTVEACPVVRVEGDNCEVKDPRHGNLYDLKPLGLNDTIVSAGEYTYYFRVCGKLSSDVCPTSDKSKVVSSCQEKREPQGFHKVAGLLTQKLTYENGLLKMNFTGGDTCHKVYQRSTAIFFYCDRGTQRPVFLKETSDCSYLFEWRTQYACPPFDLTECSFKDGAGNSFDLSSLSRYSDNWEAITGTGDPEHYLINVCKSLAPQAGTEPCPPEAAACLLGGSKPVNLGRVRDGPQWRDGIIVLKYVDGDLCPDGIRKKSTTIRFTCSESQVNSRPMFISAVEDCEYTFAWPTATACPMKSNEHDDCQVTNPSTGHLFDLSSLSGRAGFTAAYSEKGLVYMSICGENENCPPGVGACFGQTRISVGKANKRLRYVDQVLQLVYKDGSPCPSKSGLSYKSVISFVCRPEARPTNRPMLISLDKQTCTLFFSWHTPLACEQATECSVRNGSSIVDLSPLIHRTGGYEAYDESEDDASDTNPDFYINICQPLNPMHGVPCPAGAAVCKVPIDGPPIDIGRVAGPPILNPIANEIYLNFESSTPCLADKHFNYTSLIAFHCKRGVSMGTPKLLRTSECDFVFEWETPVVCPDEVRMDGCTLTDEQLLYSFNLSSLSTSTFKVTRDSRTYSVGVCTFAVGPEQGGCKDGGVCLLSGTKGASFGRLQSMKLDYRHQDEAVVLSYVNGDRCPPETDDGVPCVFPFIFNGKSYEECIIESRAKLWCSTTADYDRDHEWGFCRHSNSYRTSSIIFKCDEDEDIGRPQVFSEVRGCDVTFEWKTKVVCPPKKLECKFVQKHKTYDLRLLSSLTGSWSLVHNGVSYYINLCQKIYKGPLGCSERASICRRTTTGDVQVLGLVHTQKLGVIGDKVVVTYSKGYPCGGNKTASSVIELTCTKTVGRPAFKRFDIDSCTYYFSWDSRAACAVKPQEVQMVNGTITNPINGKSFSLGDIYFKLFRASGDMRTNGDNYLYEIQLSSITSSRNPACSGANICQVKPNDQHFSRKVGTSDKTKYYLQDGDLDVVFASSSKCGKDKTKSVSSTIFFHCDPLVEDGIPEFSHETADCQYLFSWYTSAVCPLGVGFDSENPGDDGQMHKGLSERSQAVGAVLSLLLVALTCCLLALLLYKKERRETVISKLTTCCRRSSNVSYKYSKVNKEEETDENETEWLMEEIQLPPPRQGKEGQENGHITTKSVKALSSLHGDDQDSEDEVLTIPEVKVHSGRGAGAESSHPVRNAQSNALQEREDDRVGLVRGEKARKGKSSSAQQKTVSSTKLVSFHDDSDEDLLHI

Binder | uptake by the human hepatoma cell line HuH7, compared to wildtype hARSA (internalized enzyme by ELISA) [1] [%] | binding result [2]
hARSA-mutant E424A, P15289 19-507 (enzyme) RPPNIVLIFADDLGYGDLGCYGHPSSTTPNLDQLAAGGLRFTDFYVPVSLCTPSRAALLTGRLPVRMGMYPGVLVPSSRGGLPLEEVTVAEVLAARGYLTGMAGKWHLGVGPEGAFLPPHQGFHRFLGIPYSHDQGPCQNLTCFPPATPCDGGCDQGLVPIPLLANLSVEAQPPWLPGLEARYMAFAHDLMADAQRQDRPFFLYYASHHTHYPQFSGQSFAERSGRGPFGDSLMELDAAVGTLMTAIGDLGLLEETLVIFTADNGPETMRMSRGGCSGLLRCGKGTTYEGGVREPALAFWPGHIAPGVTHELASSLDLLPTLAALAGAPLPNVTLDGFDLSPLLLGTGKSPRQSLFFYPSYPDEVRGVFAVRTGKYKAHFFTQGSAHSDTTADPACHASSSLTAHAPPLLYDLSKDPGENYNLLGGVAGATPEVLQALKQLQLLKAQLDAAVTFGPSQVARGEDPALQICCHPGCTPRPACCHCPDPHA | 20 | 
wildtype human arylsulfatase A (enzyme, Expressed in CHO cells and glycosylated; also called wildtype hARSA; wildtype hASA) RPPNIVLIFADDLGYGDLGCYGHPSSTTPNLDQLAAGGLRFTDFYVPVSLCTPSRAALLTGRLPVRMGMYPGVLVPSSRGGLPLEEVTVAEVLAARGYLTGMAGKWHLGVGPEGAFLPPHQGFHRFLGIPYSHDQGPCQNLTCFPPATPCDGGCDQGLVPIPLLANLSVEAQPPWLPGLEARYMAFAHDLMADAQRQDRPFFLYYASHHTHYPQFSGQSFAERSGRGPFGDSLMELDAAVGTLMTAIGDLGLLEETLVIFTADNGPETMRMSRGGCSGLLRCGKGTTYEGGVREPALAFWPGHIAPGVTHELASSLDLLPTLAALAGAPLPNVTLDGFDLSPLLLGTGKSPRQSLFFYPSYPDEVRGVFAVRTGKYKAHFFTQGSAHSDTTADPACHASSSLTAHEPPLLYDLSKDPGENYNLLGGVAGATPEVLQALKQLQLLKAQLDAAVTFGPSQVARGEDPALQICCHPGCTPRPACCHCPDPHA |  | binds
